Source: article PMC6250052 (Neurobiology of disease, 2018)
Where two headings read alike, the source gives them in different places.

B1: glutathione S-transferase (GST)-tagged OSCP (human oligomycin sensitivity conferring protein) (natural protein, UniProt P48047 24-213, looked up)
chain: FAKLVRPPVQVYGIEGRYATALYSAASKQNKLEQVEKELLRVAQILKEPKVAASVLNPYVKRSIKVKSLNDITAKERFSPLTTNLINLLAENGRLSNTQGVVSAFSTMMSVHRGEVPCTVTSASPLEEATLSELKTVLKSFLSQGQVLKLEAKTDPSILGGMIVRIGEKYVDMSVKTKIQKLGRAMREIV

Experiments:
Experiment in all cases: pull-down
[1] = biological target: B1
[2] = biological target: B1; remark: listed apart in the source
Aβ peptide (ApexBio) [3] = biological target: Aβ peptide (ApexBio)
Aβ peptide (ApexBio) [4] = biological target: Aβ peptide (ApexBio); remark: listed apart in the source

| Kd [1] [nM] | Kd [2] [nM] | Kd (Aβ peptide (ApexBio) [3]) [nM] | Kd (Aβ peptide (ApexBio) [4]) [nM] | Binder |
| --- | --- | --- | --- | --- |
| 100 ± 15 | 60 ± 1 | – | – | purified hCypD protein (human Cyclophilin D) (enzyme) not shown |
| – | – | 510 ± 71 | 88 ± 43 | B1 |
